Test results as given in publication doi:10.1101/2020.11.13.381350 (bioRxiv, 2020).

Target: the molecule itself
Test: SEC

B1: EGFP-WT-mVP40 (natural protein)
chain: MASSSNYNTYMQYLNPPPYADHGANQLIPADQLSNQQGITPNYVGDLNLDDQFKGNVCHAFTLEAIIDISAYNERTVKGVPAWLPLGIMSNFEYPLAHTVAALLTGSYTITQFTHNGQKFVRVNRLGTGIPAHPLRMLREGNQAFIQNMVIPRNFSTNQFTYNLTNLVLSVQKLPDDAWRPSKDKLIGNTMHPAVSIHPNLPPIVLPTVKKQAYRQHKNPNNGPLLAISGILHQLRVEKVPEKTSLFRISLPADMFSVKEGMMKKRGENSPVVYFQAPENFPLNGFNNRQVVLAYANPTLSAV
  stoichiometry N: 6
